This passage reports P.E. binding ELISA OD results from US20240409645A1.

The experiment has as its target T1, mouse IL-2Rβ (mouse) (UniProt P16297).
T1 sequence (looked up): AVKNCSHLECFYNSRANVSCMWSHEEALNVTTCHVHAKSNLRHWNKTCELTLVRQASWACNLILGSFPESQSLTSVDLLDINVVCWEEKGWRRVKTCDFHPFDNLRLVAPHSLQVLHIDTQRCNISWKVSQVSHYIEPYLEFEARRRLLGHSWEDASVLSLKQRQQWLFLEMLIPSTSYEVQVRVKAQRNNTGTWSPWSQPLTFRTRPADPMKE
The experiment in a line: P.E. binding ELISA on coated protein. Background: An ELISA detects its analyte on a solid surface through an enzyme-linked reagent.

Substitutions are numbered along the chain they refer to.

B1: FJ1427_P035MP03A07 (VHH)
VHH: QVQLVESGGGLVEAGGSLRLSCAASGRAFNNFPMGWFRQAPGKEREFVAAITWISGSTLYADSVKGRFTISRDKSKNTVYLQMSGLKPEDTALYYCAAALKTITRGQHDYTYWGQGTQVTVSS
With B1, the P.E. binding ELISA OD worked out at 0.049 OD450 nm.

B2: FJ1427_P035MP03E04 (VHH)
VHH: QVQLVESGGGLVQTGGSLRLSCAVSGSHFISDVMGWYRQVPEKQRELVADMADGNSAKYADSVKGRFSILRDSVKNTVYLQMSSLKPEDTGIYYCKAGLWIAGRHSDYWGQGTQVTVSS
As for B2, the P.E. binding ELISA OD worked out at 0.048 OD450 nm.

B3: FJ1427 P035MP03A06 (VHH)
VHH: B2 VHH with Q1E, H28R, E42G, Q44A, N55G, L70V, V74G, N76S, V78M, I92M
Consider B3, for which the P.E. binding ELISA OD was found to be 0.047 OD450 nm.

B4: FJ1427 P035MP03D04 (VHH)
VHH: QVQLVESGGGLVQPGGSLRLSCAASGFTFSNYAMSWVRQAPGKELEWVSSITSAGRGTHYADTVKGRFTISRDNDENTLYLQMNSLEPEDTAVYYCAKYSSATYYPPTPAQGRDYRGQGTQVTVSS
For the molecule B4, the P.E. binding ELISA OD turned out to be 0.048 OD450 nm.

B5: FJ1427_P035MP03D03 (VHH)
VHH: QVQLVESGGGLVQVGDSLRLSCAASGRTVGSANMGWFRQAPGKEREFVAVITWSTGSTVYADSVKGRFTISRDNAKNTVYLDLSSLKPEDTAVYYCAADVYPYSGNLNIMDYWGKGTQVTVSS
Turning to B5, the P.E. binding ELISA OD turned out to be 0.048 OD450 nm.

B6: FJ1427 P035MP03F07 (VHH)
VHH: QVQLVESGGGLVQAGGSLRLSCAASGRTFSSYVMGWFRQAPGKEREFVVAITGTRRTTDWPDSVKGRFTISRDNAQNTVYLDMNSLKPEDTAVYYCASARGLPVPPLGDIIHWGEGTLVTVSS
Molecule B6 yielded a P.E. binding ELISA OD of 0.048 OD450 nm.

B7: FJ1427 P035MP03C04 (VHH)
VHH: EVQLVESGGGLVQAGASLELSCAASGGTFSSYAMGWFRQAPGKEREFVAATTRGGGRTMYAVSTEGRFSCSRDNAKNTVNLLIKNLKPEDTAVYYCAARTSYYDGTYYPASSDFDIWGQGTQVTVSS
For the molecule B7, the P.E. binding ELISA OD came out at 0.048 OD450 nm.

B8: FJ1427_P035MP03H04 (VHH)
VHH: B7 VHH with E1Q, A16G, E19A, N80Y
Molecule B8 showed a P.E. binding ELISA OD of 0.05 OD450 nm.

B9: FJ1427 P035MP03H05 (VHH)
VHH: B7 VHH with E1Q, V2L, A16G, E19A, N80Y
On to B9, for which the P.E. binding ELISA OD was determined as 0.049 OD450 nm.

B10: FJ1427 P035MP03B04 (VHH)
VHH: QVQLVESGGGLVQTGGSLRLSCAASGSQFINDVMGWYRQVPGKQRELVADMDDTGSTKYADSVKGRFTILRDSVKNTAYLQMSNLKPEDTGVYYCKAGLWIKGRHSDYWGQGTQVTVSS
For B10, the P.E. binding ELISA OD is 0.048 OD450 nm.

B11: FJ1427_P035MP03F04 (VHH)
VHH: B10 VHH with Q1E
B11 gave a P.E. binding ELISA OD of 0.049 OD450 nm.

B12: FJ1427_P035MP03F06 (VHH)
VHH: B10 VHH with V5Q
In the case of B12, the P.E. binding ELISA OD was 0.048 OD450 nm.

B13: FJ1427_P035MP03G03 (VHH)
VHH: QVQLVESGGGLVQPGGSLGLSCAASGFTFDNYAMSWVRQAPGKGLEWVSSITGAGRGTHYADSVKGRFTISRDNAKNTLYLQMNSLKPEDTAVYYCAKYSSSTYYPPTPARGTDYRGPGTQVTVSS
B13 displayed a P.E. binding ELISA OD of 0.05 OD450 nm.

B14: FJ1427_P035MP03E06 (VHH)
VHH: B13 VHH with P14A, G16R
B14 displayed a P.E. binding ELISA OD of 0.048 OD450 nm.

B15: FJ1427_P035MP03C07 (VHH)
VHH: QVQLVESGGGLVQAGDSLRLSCAASGRSLSTDCMGWVRQAPGKEREFVAGITWGTGSTLYADSVEGRFTISKDNAKNTGYLQMSSLKPEDTAVYYCAVDRYCYRGTVYRDWGRGTQVTVSS
Molecule B15 had a P.E. binding ELISA OD of 0.047 OD450 nm.

B16: FJ1427_P035MP03G07 (VHH)
VHH: QVQLVESGGGLVQAGGSLRLSCAASGRTFSSDAKGWFRQAPGKEREFVAAITWAGRGTDYADSVKGRFTITRDNAKNMVYLQMSNLKPEDTAVYYCALNPEGVIGPYFRNSNRYNYWGQGTQVTVSS
In the case of B16, the P.E. binding ELISA OD was determined as 0.048 OD450 nm.

B17: FJ1427_P035MP03B05 (VHH)
VHH: EVQLVESGGGLVQAGGSLRLACALSGDVFVRYTMAWFRQAPGKEREFVASVTDSGRTTDYVASVQGRFTVSRDNNKNTVYLQMNSLKPEDTAVYYCAANTDYFQIRSLDRNTWGQGTQVTVSS
B17 yielded a P.E. binding ELISA OD of 0.05 OD450 nm.

B18: FJ1427 P035MP03D07 (VHH)
VHH: B17 VHH with A21S, L24A, V61G, A62D, Q65K, N75A, S85N, R110A
On to B18, for which the P.E. binding ELISA OD was determined as 0.049 OD450 nm.

B19: FJ1427 P035MP03E05 (VHH)
VHH: EVQLVESGGGLVQAGGSLRLSCAVSGVIFWSDVVGWYRQASGKQRELVATINLDDTKHYGEVVKGRFAISRDSHKNAYYLQLNSLKPEDTAVYYCNVRRGSEFYWGQGTQVTVSS
With B19, the P.E. binding ELISA OD was determined as 0.049 OD450 nm.

B20: FJ1427_P035MP03A04 (VHH)
VHH: EVQLVESGGGSVQTGGSLRLSCVVSGSHFISDVMGWYRQVPGKQRELVADMADGGSVKYGDSVKGRFTILRDSVKNTVTLQMSSLNPEDTGVYYCKAGLWITGRHFDYWGQGTQVTVTS
Molecule B20 registered a P.E. binding ELISA OD of 0.051 OD450 nm.

B21: FJ1427_P035MP03G05 (VHH)
VHH: EVQLVESGGGLVQIGGSLRLSCAASGRTFSSITMAYFRQVPGKEREWVAGINFSGTRTFYADSVKGRFLISRDDAKSTMYLQMNSLKPEDTAVYYCAASPRGFYGPGNALYDYWGQGTQVTVSS
Take B21: the P.E. binding ELISA OD was 0.049 OD450 nm.

B22: FJ1427 P035MP03E07 (VHH)
VHH: QVQLVESGGGLVQAGGSLRLSCAVSGDVFVRYTMAWFRQAPGKEREFVATVTDSGRTTEYVDSVKGRFTVSRDNAKNTVYLQMNNLKPEDTAVYYCAANTDYFRIRSLDANTWGQGTQVTVSS
The molecule B22 yielded a P.E. binding ELISA OD of 0.057 OD450 nm.

B23: FJ1427_P035MP03H07 (VHH)
VHH: B22 VHH with Q1E, A23V, T50A, R104Q, L108V, A110N, T112A
In turn, B23 showed a P.E. binding ELISA OD of 0.053 OD450 nm.
